Measurements published in patent publication US20030054004A1 (published 2003).
One block for each molecule: values may come before it.

Columns and labels:
[1] = biological target: human lymphotoxin (TNFβ) (human) (UniProt P01374); assay: cell-based or functional assay
recombinant human TNFα = recombinant human TNFα (human, UniProt P01375 77-233); assay: cell-based or functional assay
Chain of recombinant human TNFα (P01375 77-233): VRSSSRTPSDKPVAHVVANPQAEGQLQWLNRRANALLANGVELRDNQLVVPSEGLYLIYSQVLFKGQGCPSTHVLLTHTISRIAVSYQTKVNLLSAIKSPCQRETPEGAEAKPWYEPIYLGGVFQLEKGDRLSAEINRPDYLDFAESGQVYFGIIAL

Chain of human lymphotoxin (TNFβ) (human) (P01374 35-205 limits assumed): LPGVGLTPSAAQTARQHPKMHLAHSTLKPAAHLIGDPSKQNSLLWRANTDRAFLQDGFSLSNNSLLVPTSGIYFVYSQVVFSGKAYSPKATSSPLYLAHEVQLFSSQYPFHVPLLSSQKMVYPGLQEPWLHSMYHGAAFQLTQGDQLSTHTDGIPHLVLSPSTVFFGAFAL

Molecule: p75P-sf2 (p75 extracellular domain lacking the C-terminal 53 amino acids, fused to the IgG1 heavy chain) (from UniProt P20333 23-204) (Fc fusion)
concentration to half-inhibit human TNFβ at 2 pM, WEHI 164 cytotoxicity [1]: 31 pM

IL-6 in supernatant of FS-4 fibroblasts; TNF 0.3 ng/ml, 4 µg/ml antibody (recombinant human TNFα): 1.6 ng/mL | IL-6 in supernatant of FS-4 fibroblasts; TNF 1.5 ng/ml, 4 µg/ml antibody (recombinant human TNFα): 1.96 ng/mL | IL-6 in supernatant of FS-4 fibroblasts; TNF 7.5 ng/ml, 4 µg/ml antibody (recombinant human TNFα): 2.16 ng/mL
B1: chimeric mouse/human IgG1 anti-platelet mAb (7E3) (antibody, INN chains, looked up, V domains shown)
VH: EVQLQQSGTVLARPGASVKMSCEASGYTFTNYWMHWVKQRPGQGLEWIGAIYPGNSDTSYIQKFKGKAKLTAVTSTTSVYMELSSLTNEDSAVYYCTLYDGYYVFAYWGQGTLVTVSA
VL: EIVLTQSPVTLSVTPGDSVSLSCRASRDISNNLHWFQQTSHESPRLLIKYASQSMSGIPSRFSGSGSGTDFTLSINSVETEDFGMYFCQQTNSWPYTFGGGTKLEIK
modifications: IgG1

B2: p75P-sf3 (as p75P-sf2 but lacking the CH1 domain) (Fc fusion, human, not shown: a dimerising Fc or GST)
heavy: QLPAQVAFTPYAPEPGSTCRLREYYDQTAQMCCSKCSPGQHAKVFCTKTSDTVCDSCEDSTYTQLWNWVPECLSCGSRCSSDQVETQACTREQNRICTCRPGWYCALSKQEGCRLCAPLRKCRPGFGVARPGTETSDVVCKPCAPGTFSNTTSSTDICRPHQICNVVAIPGNASMDAVCTSTSGTLVTVSS
IC50: concentration of fusion protein required to inhibit 2 ng/ml (39.2 pM) TNFα by 50%, WEHI 164 cytotoxicity (recombinant human TNFα): 130 pM

B3: p55-sf3 (p55 / IgG1 heavy chain fusion lacking the CH1 domain) (Fc fusion, human, not shown: a dimerising Fc or GST)
heavy: QVCPQGKYIHPQNNSICCTKCHKGTYLYNDCPGPGQDTDCRECESGSFTASENHLRHCLSCSKCRKEMGQVEISSCTVDRDTVCGCRKNQYRHYWSENLFQCFNCSLCLNGTVHLSCQEKQNTVCTCHAGFFLRENECVSCSNCKKSLECTKLCLPQIGTLVTVSS
IC50: concentration of fusion protein required to inhibit 2 ng/ml (39.2 pM) TNFα by 50%, WEHI 164 cytotoxicity (recombinant human TNFα): 100 pM
